We go through one compound from publication PMC7591906, “pHLIP ICG for delineation of tumors and blood flow during fluorescence-guided surgery” (Scientific Reports, 2020).

Peptide text beside a SMILES is read from it. * marks the point of attachment. X1 = CC1(C)C(/C=C/C=C/C=C/C=C2/N(CCCCCC(=O)NCCN3C(=O)CC(*)C3=O)c3ccc4ccccc4c3C2(C)C)=[N+](CCCCS(=O)(=O)[O-])c2ccc3ccccc3c21

Data set [1] can be described thus: Pharmacokinetics in Beagle dogs, single i.v. bolus injection. It counts as in vivo. Conditions: male, dog, plasma, iv, mean. How it is done: The objective of this study performed at CRL was to characterize the pharmacokinetic profile of pHLIP ICG in Beagle dogs following a single i.v. injection.
Blood samples were collected at 5, 15, and 30 minutes, and 1, 2, 4, 6, 8, 12, 24, and 48 hours post-dose for pharmacokinetic evaluation. Samples were placed on crushed wet ice until centrifugation, which was carried out immediately. The samples were centrifuged as per standard procedures. An aliquot of 250 µL of the resultant plasma was separated, transferred to 2.0 mL low-bind tubes containing 1.25 mL of methanol, mixed and frozen immediately over dry ice and transferred to a freezer at -80°C. At the time of analysis, samples were thawed, extracted, and analyzed via LC-MS/MS according to the validated protocol using pHLIPIS.

The subject of data set [2] is human mammary epithelial cells (HMEpC). The data set is described as follows: Cytotoxicity, cell viability (CellTiter 96 AQueous One). Type of data set: cell-based. As to conditions: 0.125 up to 16 µM, 72 h, absorbance 490 nm, triplicate. The protocol:
Human mammary epithelial cells (HMEpC) acquired from Cell Applications, Inc. were authenticated and stored according to supplier’s instructions. Cells were cultured in mammary epithelial cell growth medium provided by the manufacturer. HMEpC cells were loaded in the wells of 96-well plates (~6,000 cells per well) and incubated overnight. Increasing amounts of pHLIP ICG dissolved in cell growth medium were added to cells to give the following final concentrations of pHLIP ICG with cells: 0.125, 0.25, 0.5, 1, 2, 4, 8 and 16 μM. After 48 and 72 hours of incubation, a colorimetric reagent (CellTiter 96 AQueous One Solution Assay, Promega) was added for 2 hours followed by measuring absorbance at 490 nm to assess cell viability. All samples were prepared in triplicate and each experiment was repeated several times.

In the next data set the test system is 4T1 tumor. The data set is described as follows: Biodistribution and kinetics, ex vivo fluorescence imaging of organs. Type of data set: in vivo, BALB/c mice. As to conditions: post-administration, decay after 6 h. How it is done:
BALB/cAcNHsd mice ranging in age from 5 to 6 weeks obtained from Envigo RMS, Inc. were used in the study. Mouse mammary 4T1 cancer cells were subcutaneously implanted in the right flank (8 x 10^5 cells/0.1 mL/flank) of adult female or male mice. The triple-negative 4T1 tumor model closely mimics stage IV of human breast cancer. When tumors reached […] in diameter, single tail vein injections of 0.5 mg/kg of pHLIP ICG in sterile PBS, or PBS with 5% DMSO or 5% Ethanol (vol:vol) (volume of the injection was 100 μl) were performed. Animals were euthanized 5 min, 1, 2, 4, 6, 16, 26 and 48 hrs after pHLIP ICG administration. Several animals were used for each time point plus seven control animals (no pHLIP ICG administration). Tumor, muscles, skin, heart, lungs, liver, spleen, kidneys, brain, pancreas, bone, stomach, small and large intestines were collected, and imaged immediately after necropsy. […] The background signal was determined by introducing an intensity threshold. All the pixels with intensity above the set threshold were counted and the average intensity per pixel was calculated. For organs for which the highest illumination light intensity produced a saturated image, the medium illumination light intensity images were analyzed, then converted to a comparison using experimentally established conversion curves.

Data set [3] can be described thus: 7-day repeat i.v. toxicity in B6D2F1 mice (GLP). Type of data set: in vivo. As to conditions: 13.6 mg/kg/day i.v. for 7 days, incidence and severity decreasing over time. The protocol: The purpose of this GLP study performed at MSK was to assess the acute and delayed toxicity of a repeat administration of pHLIP ICG in mice. The pHLIP ICG was administered for 7 consecutive days.
Throughout the study, body weights, clinical signs, clinical pathology (hematology and clinical chemistry), and histopathology were collected.

For data set [4], the system named is MDA-MB-231, 4T1, A549, LLC, M4A4, HeLa, UM-UC3 and LNCaP tumors. In words: Tumor targeting, NIR fluorescence imaging in different tumor models. It counts as in vivo, athymic female nude mice. As to conditions: 24 h after single i.v. 0.5 mg/kg, 8 tumor models, Stryker clinical imaging system, skin removed. How it is done: Targeting of murine and human tumors was shown in 8 different tumor models in athymic female nude mice (strain Hsd Athymic Nude-Foxn1nu) ranging in age from 5 to 6 weeks (obtained from Envigo RMS, Inc). The following tumors were established by subcutaneous injection of 1 x 10^6 cells/0.1 ml/flank in flanks of athymic nude mice: HeLa (humans cervical adenocarcinoma), M4A4 (human epithelial carcinoma), 4T1 (murine breast tumor), A549 (human lung carcinoma), LLC (murine Lewis Lung carcinoma), UM-UC3 (human urinary bladder cancer), and 4 x 10^6 cells/0.1 ml/flank of LNCaP tumor (human prostate cancer). Human MDA-MB-231 (breast adenocarcinoma) tumors were established by injections of 1 x 10^6 cells/0.05 ml in the mammary fat pad. […] Finally, surgery was carried out under fluorescence-guidance to remove tumor and to image the tumor bed using the Stryker SPY-PHI handheld clinical imaging system.

In general, clearance refers to a measure of how efficiently the substance is removed, as volume per time. One may read the AUC(0-inf) as total exposure, with the tail of the curve extrapolated. Read a low AUC(0-inf) as low exposure. On to `CC(C)C[C@H](NC(=O)[C@H](Cc1ccc(O)cc1)NC(=O)[C@H](C)NC(=O)[C@H](CCCNC(=N)N)NC(=O)[C@H](Cc1c[nH]c2ccccc12)NC(=O)[C@@H]1CCCN1C(=O)[C@H](CC(N)=O)NC(=O)[C@H](CCC(N)=O)NC(=O)[C@H](CC(=O)O)NC(=O)[C@H](CC(=O)O)NC(=O)[C@H](CSC1CC(=O)N(CCNC(=O)CCCCCN2/C(=C/C=C/C=C/C=C/C3=[N+](CCCCS(=O)(=O)[O-])c4ccc5ccccc5c4C3(C)C)C(C)(C)c3c2ccc2ccccc32)C1=O)NC(=O)[C@H](C)N)C(=O)N[C@@H](CC(=O)O)C(=O)N[C@@H](CC(C)C)C(=O)N[C@@H](CC(C)C)C(=O)N[C@@H](Cc1ccccc1)C(=O)N1CCC[C@H]1C(=O)N[C@H](C(=O)N[C@@H](CC(=O)O)C(=O)N[C@H](C(=O)N[C@@H](CC(C)C)C(=O)N[C@@H](CC(C)C)C(=O)N[C@@H](CC(C)C)C(=O)N[C@@H](CC(=O)O)C(=O)N[C@@H](CC(C)C)C(=O)N[C@@H](CC(C)C)C(=O)N[C@@H](Cc1c[nH]c2ccccc12)C(=O)N[C@@H](C)C(=O)O)[C@@H](C)O)[C@@H](C)O` (stereo partly shown) [pHLIP ICG] (H-AC(X1)DDQNPWRAYLDLLFPTDTLLLDLLWA-OH), for which the clearance in data set [1] (single i.v. 0.064 mg/kg, read-out: Clearance (Cl) (converted)) was 0.193 mL/min/kg. Moreover, the half-life in data set [1] (single i.v. 0.064 mg/kg, read-out: Elimination half-time (T1/2) (converted)) was 3.7 h. Further, the Vd in data set [1] (single i.v. 0.064 mg/kg, read-out: Volume of distribution (Vz)) amounted to 0.0616 L/kg. The AUC(0-inf) in data set [1] (single i.v. bolus 0.064 mg/kg) worked out at 5550 ng·h/mL. For the same compound, in data set [1] (single i.v. bolus 0.064 mg/kg, 3 males, read-out: C0 (theoretical concentration at time zero)), the C0 was 1410 ng/mL. In addition, the AUC(0-t) in data set [1] (single i.v. bolus 0.064 mg/kg, read-out: AUC0-48hr) came out at 5450 ng·h/mL. In data set [2], the “Cytotoxic effect (cell viability)” value is “did not show any cytotoxic effect at any tested concentration”. In addition, the “Time of maximum signal in the liver” value with 4T1 tumor was found to be 1 h. Further, the Toxicity finding entry in data set [3] is recorded as “may be associated with germ cell degeneration in males”. Moreover, the Tumor targeting result in data set [4] is reported as “Excellent tumor targeting”.
